Data published in PMC6689322 (Journal of structural biology, 2019).
Each block holds one molecule with its values, some of them ahead of it.

Key:
[1] = target: ArsR As(III)-responsive transcriptional repressor from Corynebacterium glutamicum (Corynebacterium glutamicum); test: crystal structure
[2] = target: the molecule itself; test: crystal structure

stoichiometry N [1]: 2
Molecule: ArsR As(III)-responsive transcriptional repressor from Corynebacterium glutamicum (natural protein)

B1: ArsR As(III)-responsive transcriptional repressor from Acidithiobacillus ferrooxidans (natural protein)
chain: MEPLQDPAQIVARLEALASPVRLEIFRLLVEQEPTGLVSGDIAEHLGQPHNGISFHLKNLQHAGLVTVQREGRYQRYRAAMPVVRALVAYLTENCCHGTRDCALSGETRSPSVQEGNQ
stoichiometry N [2]: 2
